We go through 13 molecules from patent publication US20200079842A1 (NETRIS PHARMA, published 2020).

“And” between values parts separate entries of the source, which are not always exact repeats. Identical values can stand only once.

Assay [1] concerns the target T1, FLAG-tagged netrin-1 (Adipogen) (human, UniProt O95631 25-604, limits assumed).
T1 construct: Bought protein; also called FLAG®-tagged Netrin-1 (APOTECH); not shown: FLAG tag
Briefly: competition ELISA: FLAG-netrin-1 binding to coated UNC5B-Fc. How it is done: After three washings with 300 μL of PBS-0.05% TWEEN®-20 (PBS-T), the plate was blocked by addition of 100 μL of PBS-2% BSA and incubated 1 hour at room temperature. After three washings with 300 μL of PBS-T, the plate was incubated for 1 hour at room temperature, with 100 μL of PBS-1% BSA containing 50 ng/mL FLAG®-tagged netrin-1 (Adipogen) and various quantities (0.2 ng to 3000 ng) of the 4C11 antibody. After three washings with 300 μL of PBS-T, 100 μL of an anti-FLAG® M2 monoclonal antibody conjugated to horse radish peroxidase (HRP) (Sigma A8592) diluted 1/5,000 in PBST-1% BSA was added and the plate was incubated 1 hour at room temperature. After three washings with 300 μL of PBS-T, 100 μL of a luminescent substrate of HRP (ECL western blotting substrate, PIERCE) is added. After 5 to 10 minutes, the luminescence was read on a Tecan Infinite F-500 luminometer.
For orientation: An ELISA detects its analyte on a solid surface through an enzyme-linked reagent.

Assay [2] deals with T2, His-tagged Netrin-1 (R&D 6419-N1) (human, UniProt O95631 25-604).
T2 construct: Bought protein; also called adsorbed netrin-1; not shown: His tag
Briefly: ELISA, coated His-tagged netrin-1, luminescence. Here is the method: White 96-well microtiter plate (Costar 3912 Corning) was incubated overnight at 4° C. with 100 ng of His-tagged Netrin-1 (R&D 6419-N1) in 100 μL of Phosphate buffer saline (PBS). After three washings with 300 μL of PBS-0.05% TWEEN®-20 (PBS-T), the plate was blocked by addition of 100 μL of PBS-3% BSA and incubated 1 hour at room temperature. After three washings with 300 μL of PBS-T, the plate was incubated with various quantities (10 ng to 1200 ng) of the anti-netrin-1 antibody. After three washings with 300 μL of PBS-T, 100 μL of a relevant secondary antibody conjugated to horse radish peroxidase (e.g. goat anti-human IgG (Fc) Sigma A0170 or goat anti-mouse IgG light chain specific (kappa) Jackson Immunoresearch 115-035-174) diluted 1/10,000 in PBST-3% BSA was added and the plate was incubated 1 hour at room temperature. After three washings with 300 μL of PBS-T, 100 μL of a luminescent substrate of HRP (ECL western blotting substrate, PIERCE) is added. After 5 to 10 minutes, the luminescence was read on a Tecan Infinite F-500 luminometer.

What is called IC50 is the concentration at which inhibition is half-maximal. Low readings indicate greater potency, high ones weaker potency. The term EC50 denotes the concentration that produces a half-maximal response.

B1: HUM03 (antibody, human IgG1, V domains shown)
VH: QVQLQQSGPGLVKPSQTLSLTCAISGYTFTSYNMHWVRQATGQGLEWMGAIYPGNGDTSYNQKFKGRLTISKDTSKNQVVLTMTNMDPVDTATYYCARGGTGFAYWGQG
VL: DIQMTQSPSSLSASVGDRVTITCKASQSVSNDVAWYQQKPGQAPRLLIYYASNRYTGIPPRFSGSGYGTDFTLTINNIESEDAAYYFCQQDYSSPWTFGQG
notes: also called Humanized 4C11; humanized 4C11 hum03
Take B1: the IC50 in assay [1] is 0.065 µg/mL and 0.434 nM. The EC50 in assay [2] is 0.166 µg/mL and 1.11 nM.

B2: HUM10 (antibody, human IgG1, V domains shown)
VH: QVQLQQSGPGLVKPSQTLSLTCAISGYTFTSYNMHWIRQPPGKGLEWIGAIYPGNGDTSYNQKFKGRVTITADKSTSTAYMELSSLRSEDTAVYYCARGGTGFAYWGQG
VL: DIQMTQSPSSLSASVGDRVTITCKASQSVSNDVAWYQQKPGQAPRLLIYYASNRYTGIPPRFSGSGYGTDFTLTINNIESEDAAYYFCQQDYSSPWTFGQG
notes: also called humanized 4C11 variant HUM10
Regarding B2, in assay [1], the IC50 was 0.11 µg/mL and 0.734 nM. In assay [2], the concentration giving a half-maximal response (EC50) is 0.211 µg/mL and 1.41 nM.

B3: HUM08 (antibody, human IgG1, V domains shown)
VH: QVQLQQSGPGLVKPSQTLSLTCAISGYTFTSYNMHWVRQATGQGLEWMGAIYPGNGDTSYNQKFKGRLTISKDTSKNQVVLTMTNMDPVDTATYYCARGGTGFAYWGQG
VL: DIQMTQSPSSLSASVGDRVTITCKASQSVSNDVAWYLQKPGQSPQLLIYYASNRYTGVPSRFSGSGSGTDFTFTISSLEAEDAATYYCQQDYSSPWTFGQG
notes: also called humanized 4C11 variant HUM08
Regarding B3, the IC50 in assay [1] is 0.077 µg/mL and 0.514 nM. In addition, the EC50 in assay [2] is 0.134 µg/mL and 0.894 nM.

B4: 4C11 Fab (Fab, V domains shown)
VH: QAYLQQSGAELVRPGASVKMSCKASGYTFTSYNMHWVKQTPRQGLEWIGAIYPGNGDTSYNQKFKGKATLTVDKSSSTAYMQLSSLTSEDSAVYFCARGGTGFAYWGQGTLVTVSA
VL: SIVMTQTPKFLLVSAGDRVTITCKASQSVSNDVAWYQQKPGQSPKLLIYYASNRYTGVPDRFTGSGYGTDFTFTISTVQAEDLAVYFCQQDYSSPWTFGGGTKLEIK
notes: only the variable domains are tied to it; also called Fab fragment of murine 4C11
As to B4, the half-maximal inhibitory concentration (IC50) in assay [1] is 0.844 µg/mL and 16.9 nM. In assay [2], the EC50 is 13 nM and 0.65 µg/mL.

B5: 4C11 Fab′2 (other)
VH: QAYLQQSGAELVRPGASVKMSCKASGYTFTSYNMHWVKQTPRQGLEWIGAIYPGNGDTSYNQKFKGKATLTVDKSSSTAYMQLSSLTSEDSAVYFCARGGTGFAYWGQGTLVTVSA
VL: SIVMTQTPKFLLVSAGDRVTITCKASQSVSNDVAWYQQKPGQSPKLLIYYASNRYTGVPDRFTGSGYGTDFTFTISTVQAEDLAVYFCQQDYSSPWTFGGGTKLEIK
notes: only the variable domains are tied to it; also called Fab′2 fragment of murine 4C11
Take B5: the IC50 in assay [1] is 0.089 µg/mL and 0.89 nM. In addition, in assay [2], the EC50 was 0.035 µg/mL and 0.35 nM.

B6: 4C11 murine IgG2a (antibody, V domains shown)
VH: QAYLQQSGAELVRPGASVKMSCKASGYTFTSYNMHWVKQTPRQGLEWIGAIYPGNGDTSYNQKFKGKATLTVDKSSSTAYMQLSSLTSEDSAVYFCARGGTGFAYWGQGTLVTVSA
VL: SIVMTQTPKFLLVSAGDRVTITCKASQSVSNDVAWYQQKPGQSPKLLIYYASNRYTGVPDRFTGSGYGTDFTFTISTVQAEDLAVYFCQQDYSSPWTFGGGTKLEIK
With B6, in assay [1], the IC50 was 0.085 µg/mL and 0.567 nM. The concentration for a half-maximal effect (EC50) in assay [2] was 0.063 µg/mL and 0.42 nM.

B7: HUM01 (antibody, human IgG1, V domains shown)
VH: QVQLVQSGAEVKKPGASVKVSCKASGYTFTSYNMHWVRQATGQGLEWMGAIYPGNGDTSYNQKFKGRVTITADKSTSTAYMELSSLRSEDTAVYYCARGGTGFAYWGQG
VL: EIVMTQSPATLSVSPGERATLSCKASQSVSNDVAWYQQKPGKAPKLLIYYASNRYTGIPPRFSGSGYGTDFTLTINNIESEDAAYYFCQQDYSSPWTFGQG
notes: also called humanized 4C11 variant HUM01
B7: in assay [1], the concentration for half-maximal inhibition (IC50) was 0.054 µg/mL and 0.36 nM. Besides, in assay [2], the EC50 is 0.134 µg/mL and 0.894 nM.

B8: HUM09 (antibody, human IgG1, V domains shown)
VH: QVQLVQSGAEVKKPGASVKVSCKASGYTFTSYNMHWVRQATGQGLEWMGAIYPGNGDTSYNQKFKGRVTITADKSTSTAYMELSSLRSEDTAVYYCARGGTGFAYWGQG
VL: DIVMTQTPLSLPVTPGEPASISCKASQSVSNDVAWYQQKPGQAPRLLIYYASNRYTGIPPRFSGSGYGTDFTLTINNIESEDAAYYFCQQDYSSPWTFGQG
notes: also called humanized 4C11 variant HUM09
As for B8, the concentration for half-maximal inhibition (IC50) in assay [1] was 0.071 µg/mL and 0.474 nM. Further, the 50% effective concentration (EC50) in assay [2] is 0.153 µg/mL and 1.02 nM.

B9: HUM06 (antibody, human IgG1, V domains shown)
VH: QVQLVQSGAEVKKPGASVKVSCKASGYTFTSYNMHWVRQATGQGLEWMGAIYPGNGDTSYNQKFKGRVTITADKSTSTAYMELSSLRSEDTAVYYCARGGTGFAYWGQG
VL: DIQMTQSPSSLSASVGDRVTITCKASQSVSNDVAWYQQKPGQAPRLLIYYASNRYTGIPPRFSGSGYGTDFTLTINNIESEDAAYYFCQQDYSSPWTFGQG
notes: also called humanized 4C11 variant HUM06
As for B9, the IC50 in assay [1] was 0.082 µg/mL and 0.547 nM. The EC50 in assay [2] is 0.139 µg/mL and 0.927 nM.

B10: HUM05 (antibody, human IgG1, V domains shown)
VH: QVQLQESGPGLVKPSQTLSLTCTVSGYTFTSYNMHWVRQAPGQGLEWMGAIYPGNGDTSYNQKFKGRVTISVDTSKNQFSLKLSSVTAADTAVYYCARGGTGFAYWGQG
VL: DIQMTQSPSSLSASVGDRVTITCKASQSVSNDVAWYLQKPGQSPQLLIYYASNRYTGVPSRFSGSGSGTDFTFTISSLEAEDAATYYCQQDYSSPWTFGQG
notes: also called humanized 4C11 variant HUM05
As to B10, the IC50 in assay [1] was 0.085 µg/mL and 0.567 nM. In addition, in assay [2], the EC50 was 0.151 µg/mL and 1.01 nM.

B11: HUM04 (antibody, human IgG1, V domains shown)
VH: EVQLVQSGAEVKKPGESLRISCKGSGYTFTSYNMHWVRQATGQGLEWMGAIYPGNGDTSYNQKFKGRFTISRDDSKNTAYLQMNSLKTEDTAVYYCARGGTGFAYWGQG
VL: DIQMTQSPSSLSASVGDRVTITCKASQSVSNDVAWYLQKPGQSPQLLIYYASNRYTGVPSRFSGSGSGTDFTFTISSLEAEDAATYYCQQDYSSPWTFGQG
notes: also called humanized 4C11 variant HUM04
Regarding B11, the IC50 in assay [1] is 0.199 µg/mL and 1.33 nM. Also, in assay [2], the EC50 was 0.198 µg/mL and 1.32 nM.

B12: HUM07 (antibody, human IgG1, V domains shown)
VH: QVQLQQSGPGLVKPSQTLSLTCAISGYTFTSYNMHWVRQATGQGLEWMGAIYPGNGDTSYNQKFKGRVTITADKSTSTAYMELSSLRSEDTAVYYCARGGTGFAYWGQG
VL: DIQMTQSPSSLSASVGDRVTITCKASQSVSNDVAWYLQKPGQSPQLLIYYASNRYTGVPSRFSGSGSGTDFTFTISSLEAEDAATYYCQQDYSSPWTFGQG
notes: also called humanized 4C11 variant HUM07
Take B12: the IC50 in assay [1] was 0.089 µg/mL and 0.594 nM. Further, in assay [2], the EC50 was 0.125 µg/mL and 0.834 nM.

B13: HUM02 (antibody, human IgG1, V domains shown)
VH: QVQLQQSGPGLVKPSQTLSLTCAISGYTFTSYNMHWIRQPPGKGLEWIGAIYPGNGDTSYNQKFKGRVTITADKSTSTAYMELSSLRSEDTAVYYCARGGTGFAYWGQG
VL: DIQMTQSPSSLSASVGDRVTITCKASQSVSNDVAWFQQRPGQSPRRLIYYASNRYTGVPSRFSGSGSGTDFTFTISSLEAEDAATYYCQQDYSSPWTFGQG
notes: also called humanized 4C11 variant HUM02
In the case of B13, in assay [1], the half-maximal inhibitory concentration (IC50) was 0.215 µg/mL and 1.43 nM. Besides, the EC50 in assay [2] was 0.26 µg/mL and 1.73 nM.
